Here are results for 120 sequences from the supplement of paper PMC10126150.

± gives the standard deviation of the averaged measurements.

The data set relates to ATP. Briefly: switch fluorescence ratio, 500 uM ATP over buffer (Cy3 cluster intensity, sum of 5 cycles each) (fold (ratio)); higher = stronger signal-on switching upon ATP binding; sequences stand for … in TCGTCGGCAGCGTCAGATGTGTATAAGAGACAGTTTTTTTTTTTTTTTTTTTTTTTTT…TC. To be noted: aptamer strand: ATP DNA aptamer (quencher-CACCTGGGGGAGTATTGCGGAGGAAGG + anchor), 100 nM annealed; ATP concentration: 500 uM. An outline of the steps:
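For every switch-domain sequence, the fluorescence ratio is the mean of per-cluster values, each being summed target-cycle Cy3 intensity over summed buffer-cycle Cy3 intensity. Clusters outside 100-1000 RFU were excluded. On a modified Illumina MiSeq flow-cell, the Cy3-labelled switching-strand clusters were annealed to 100 nM quencher-labelled ATP aptamer, imaged in selection buffer and then after 15 min with 500 uM ATP at 22 °C. Five such cycles were run, with NaOH stripping and re-annealing between them.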
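Also: ATP exposure 15 min at 22 °C before imaging.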

Take GTGACCTGGG: the switch fluorescence ratio turned out to be 1.03 ± 0.026. Then GTGACGGGGT, with 1.01 ± 0.022; and GTGACTTTCT, with 0.99 ± 0.017. In the case of GTGAGATGTT it was 1 ± 0.016; in that of GTGAGCCGGT, 0.983 ± 0.013; in that of GTGAGGGAGT, 1.008 ± 0.006. For the sequence GTGAGGTGTG, the switch fluorescence ratio was 1.001 ± 0.009.

Turning to GTGAGTAGGG, the switch fluorescence ratio was 0.989 ± 0.018. With GTGAGTGGCA, the switch fluorescence ratio is 0.986 ± 0.029.

In the case of GTGATAAGAG, the switch fluorescence ratio is 0.999 ± 0.013.

GTGATAAGCG: the switch fluorescence ratio was 1.03 ± 0.04. Then GTGATACCCG, with 1.02 ± 0.058; and GTGATACTGG, with 1.04 ± 0.014; and GTGATAGTTA, with 0.967 ± 0.043. In the case of GTGATCTGAT it was 1.01 ± 0.029; in that of GTGATCTTAT, 0.9965 ± 0.0031; in that of GTGATCTTTT, 1 ± 0.049. Then GTGATGGCAG, with 0.9846 ± 0.0053. As for GTGATGGGGG, the switch fluorescence ratio came to 1.01 ± 0.051. With GTGATGTTAG, the switch fluorescence ratio was 1.01 ± 0.011. Then GTGATTGCTA, with 0.9878 ± 0.0061; and GTGATTGCTG, with 0.9883 ± 0.0052; and GTGATTTGGT, with 0.995 ± 0.019. Regarding GTGATTTTGG, the switch fluorescence ratio came out at 0.9882 ± 0.0042. In the case of GTGATTTTGT it was 1.01 ± 0.032; in that of GTGCAATGTA, 1.1 ± 0.015.

GTGCCAAGGG: the switch fluorescence ratio was determined as 1.16 ± 0.21. Consider GTGCCCCAAG, for which the switch fluorescence ratio was found to be 1 ± 0.015. Regarding GTGCCCGGAT, the switch fluorescence ratio came to 0.9846 ± 0.0065. Then GTGCCCTGAC, with 1.29 ± 0.041; and GTGCCGGGGC, with 1.08 ± 0.11; and GTGCCTTTGC, with 1.11 ± 0.067. Then GTGCGATGTA, with 1.02 ± 0.031. Then GTGCGCAGAT, with 0.982 ± 0.022; and GTGCGCATTG, with 1.03 ± 0.046; and GTGCTATTAT, with 0.993 ± 0.024.

Take GTGCTTAATG: the switch fluorescence ratio came out at 0.975 ± 0.011. Regarding GTGGAAAAGG, the switch fluorescence ratio was 0.966 ± 0.046.

For the sequence GTGGAAAGCG, the switch fluorescence ratio was found to be 0.981 ± 0.059. Then GTGGAAGGGG, with 0.988 ± 0.03; and GTGGAAGTCG, with 0.966 ± 0.017; and GTGGAATGGG, with 0.983 ± 0.055. In the case of GTGGACGGGG it was 0.983 ± 0.033. GTGGACGTTT: the switch fluorescence ratio worked out at 1.02 ± 0.057. As for GTGGAGGGTG, the switch fluorescence ratio was 1.05 ± 0.035. In the case of GTGGAGGTTG it was 0.984 ± 0.03.

As for GTGGATAGCT, the switch fluorescence ratio came out at 1 ± 0.05. In the case of GTGGATGCAT it was 1.01 ± 0.022.

For the sequence GTGGATGGGA, the switch fluorescence ratio worked out at 0.977 ± 0.015. In the case of GTGGATTAGA, the switch fluorescence ratio worked out at 0.9767 ± 0.0056. Then GTGGATTATC, with 1.01 ± 0.036; and GTGGATTATT, with 0.993 ± 0.05. GTGGCAACGC: the switch fluorescence ratio was 0.98 ± 0.021. For GTGGCAGGTA, the switch fluorescence ratio turned out to be 1 ± 0.012.

Turning to GTGGCATTTT, the switch fluorescence ratio amounted to 1.01 ± 0.03. For GTGGCTGAGG, the switch fluorescence ratio came to 1.004 ± 0.0082. Then GTGGCTTTAT, with 1.01 ± 0.013; and GTGGCTTTGT, with 1.02 ± 0.029; and GTGGGAAGTT, with 0.9926 ± 0.0071. In the case of GTGGGACACG it was 1.01 ± 0.048; in that of GTGGGAGATA, 1.01 ± 0.038.

For the sequence GTGGGATGAC, the switch fluorescence ratio was 1.01 ± 0.024.

Regarding GTGGGATTAG, the switch fluorescence ratio is 1 ± 0.028. In the case of GTGGGATTCG it was 1.011 ± 0.0059. Then GTGGGCCAGG, with 1.06 ± 0.094; and GTGGGGAAGT, with 0.995 ± 0.034. For the sequence GTGGGGACAC, the switch fluorescence ratio came out at 0.973 ± 0.036. Regarding GTGGGGATTA, the switch fluorescence ratio was 1 ± 0.018. Then GTGGGGATTT, with 1.01 ± 0.013; and GTGGGGCTGG, with 1.008 ± 0.0055. Then GTGGGGGACG, with 0.982 ± 0.021; and GTGGGGGCAT, with 1 ± 0.041. Then GTGGGGGCGC, with 1.04 ± 0.022; and GTGGGGGGCC, with 0.966 ± 0.028; and GTGGGGGTCG, with 0.98 ± 0.075. In the case of GTGGGGGTGG, the switch fluorescence ratio came out at 0.985 ± 0.015. Turning to GTGGGGGTTA, the switch fluorescence ratio amounted to 0.996 ± 0.03. Consider GTGGGGGTTT, for which the switch fluorescence ratio worked out at 1.05 ± 0.14.

For the sequence GTGGGGTCTT, the switch fluorescence ratio came out at 1 ± 0.019.

Turning to GTGGGGTGAA, the switch fluorescence ratio stood at 1.03 ± 0.055. In the case of GTGGGGTTTT it was 0.983 ± 0.022. In the case of GTGGGTAAAG it was 0.975 ± 0.01. In the case of GTGGGTAGCG it was 0.994 ± 0.013. Take GTGGGTATTT: the switch fluorescence ratio was 0.977 ± 0.023. Consider GTGGGTCGGT, for which the switch fluorescence ratio stood at 0.979 ± 0.036. Consider GTGGGTGGTC, for which the switch fluorescence ratio is 1.02 ± 0.013.

Consider GTGGGTGTGG, for which the switch fluorescence ratio came to 1.02 ± 0.022. In the case of GTGGGTTACT it was 1.02 ± 0.021; in that of GTGGGTTAGG, 0.996 ± 0.031.

Take GTGGGTTCAG: the switch fluorescence ratio came to 1 ± 0.018. In the case of GTGGGTTCCT it was 1.013 ± 0.0021. Then GTGGGTTGTG, with 0.978 ± 0.04. Then GTGGTAACCT, with 1.4 ± 0.12; and GTGGTACAGG, with 1.02 ± 0.068.

GTGGTACATA: the switch fluorescence ratio came to 0.981 ± 0.022. Then GTGGTAGGGG, with 0.995 ± 0.025; and GTGGTAGTTC, with 0.983 ± 0.015. Then GTGGTATTAT, with 1.01 ± 0.021; and GTGGTATTTT, with 0.999 ± 0.035; and GTGGTGCTAG, with 0.97206 ± 1.9e-05. In the case of GTGGTGGGGC, the switch fluorescence ratio is 0.955 ± 0.03. In the case of GTGGTGGTTG it was 1.01 ± 0.028.

Regarding GTGGTGTTGT, the switch fluorescence ratio was determined as 0.97 ± 0.037.

With GTGGTTAAAA, the switch fluorescence ratio came to 0.998 ± 0.012. Then GTGGTTCTTT, with 0.989 ± 0.044; and GTGGTTGGAG, with 0.9865 ± 0.0072; and GTGGTTGGCC, with 1.011 ± 0.0027. In the case of GTGGTTTGTT it was 1.01 ± 0.046. In the case of GTGGTTTTCG it was 1.03 ± 0.062; in that of GTGTAAATGG, 1.01 ± 0.013. As to GTGTAACCTG, the switch fluorescence ratio came out at 1.01 ± 0.054.

For the sequence GTGTAAGAAC, the switch fluorescence ratio amounted to 1.016 ± 0.0048. Then GTGTAAGGGT, with 0.981 ± 0.018. In the case of GTGTAAGGTA it was 1.02 ± 0.018; in that of GTGTACGCTG, 0.988 ± 0.027; in that of GTGTAGAGTT, 1.02 ± 0.016. For GTGTAGGGTA, the switch fluorescence ratio is 1.01 ± 0.02. On to GTGTATAGGA, for which the switch fluorescence ratio is 0.98611 ± 0.00034. On to GTGTATATGG, for which the switch fluorescence ratio came to 0.995 ± 0.017. In the case of GTGTATCGAT, the switch fluorescence ratio stood at 1.003 ± 0.0081.
